Experimental data from paper PMC2892170 (Biochemistry, 2009).

Molecular target: the molecule itself
Test: SEC

B1: Enterococcus faecalis phosphopantothenoylcysteine synthetase (enzyme, UniProt A0ACD6TE34 1-257, looked up)
chain: MDVLVTAGGTSEPIDNVRSITNHSSGGLGKAIAESFLAAGHTVTYVTTKHALRPTQQLDLSIKEIETTVELATTLEQLFAEKQFDAIVHAMAVSDFTTEAAQTEEQFIDSFTQQLSEQTLPKTKEALATIVQNTLNQIADIPQTATKISSDTDRLLIFLKKNPKVIQMIRDKQPQTVLVGFKLLVDVSQEELVQVAQAALVKNRCDFVLANDLMNVHETEHEGLLINETGIVQEACSKQGIGSMIVKNVEKKWREQQ
Question: For B1, which “stoichiometry N” value is on record?
Answer: The value was 2.
